Assay [1] concerns the target T1, human C-MET on stably transfected CHO-K1 cells (human, UniProt P08581 25-1390).
T1 construct: also called hucMET; human C-MET+ CHO-K1 cells
Briefly: flow cytometry, C-MET CHO-K1 cells. On the procedure: (§1) Purified IgGs were tested in FACs for binding to human and cyno C-MET expressed on CHO-K1 stable cell lines and CHO-K1 wild-type cells. The IgG samples were titrated in three-fold serial dilutions starting at 500 nM to 0.08 nM. Binding of IgGs was detected with a mouse anti-human IgG conjugated to FITC. Results were analyzed by examining the Mean Fluorescence Intensity (MFI) of 10000 cells per sample in the BL-1 channel detector of a flow cytometer (Attune™ NxT Acoustic Focusing Cytometer, Invitrogen/ThermoFisher Scientific).
(§2) Antibodies to C-MET were analysed for concentration-dependent binding at the cell surface via flow cytometry. CHO-K1 cells were stably transfected with either human or cyno C-MET full-length cDNAs. Anti-C-MET IgGs and an isotype control IgG4(S228P) were then all tested in IgG4(S228P) format, over a concentration range of 500-0.08 nM for binding to human (FIG. 5A) and cyno (FIG. 5B) CHO-K1 cells.
For orientation: Flow cytometry measures light scatter and fluorescence of single cells or particles in a stream.

Assay [2] deals with T2, cynomolgus monkey C-MET on stably transfected CHO-K1 cells (cynomolgus monkey, UniProt A0M8R7 25-1381 (Papio anubis entry)).
T2 construct: also called cycMET; cyno C-MET+ CHO-K1 cells
Nature of the assay: flow cytometry, C-MET CHO-K1 cells. On the procedure:
as §1, §2

Assay [3] addresses T3, human C-MET His tagged, monomeric (human, UniProt P08581 25-932).
T3 construct: also called monomeric human C-MET; biotinylated human C-MET-His
Nature of the assay: SPR Biacore, IgG captured, monomeric C-MET-His analyte. On the procedure: (§3) Affinity (KD) of purified IgGs was determined via SPR with antigen in-solution on a Biacore® 3000 (GE). A mouse anti-human antibody (CH1 specific) was immobilized on a CM5 Sensor Chip to a level of 2000 RU in acetate buffer at pH 4.5 using amine coupling following the Wizard instructions for two channels. One channel was used for background signal correction. The standard running buffer HBS-EP pH 7.4 was used. Regeneration was performed with a single injection of 10 μl of 10 mM Glycine at pH 1.5 at 20 μl/minute. IgG samples were injected for 2 minutes at 50 nM at 30 μl/min followed by and off-rate of 60 seconds. The monomeric antigen (human C-MET His tagged or cynomolgus monkey C-MET His tag) was injected in two fold serial dilutions from 100 nM down to 6 nM, for 2 minutes at 30 μl/min followed by an off-rate of 300 seconds. The obtained sensorgrams were analysed using the Biacore® 3000 evaluation (BIAevaluation) software. The KD was calculated by simultaneous fitting of the association and dissociation phases to a 1:1 Langmuir binding model.

The target of assay [4] is T4, cynomolgus monkey C-MET His tag, monomeric (cynomolgus monkey, UniProt A0M8R7 25-932 (Papio anubis entry)).
T4 construct: also called monomeric cyno C-MET; cyCMET
Described as above. Here is the method: as §3

For assay [5], the target named is T1, human C-MET on stably transfected …. Nature of the assay: flow cytometry, C-MET CHO-K1 cells. Here is the method:
as §1
The source holds these as a separate data set.

Assay [6] addresses T2, cynomolgus monkey C-MET on stably …. Briefly: flow cytometry, C-MET CHO-K1 cells. Here is the method:
as §1
The source holds these as a separate data set.

From patent US20260042850A1 (LOCKBODY THERAPEUTICS, published 2026) come the findings set out here.

Where only a bound is given, the exact number is not on record here.

T3 sequence (P08581 25-932): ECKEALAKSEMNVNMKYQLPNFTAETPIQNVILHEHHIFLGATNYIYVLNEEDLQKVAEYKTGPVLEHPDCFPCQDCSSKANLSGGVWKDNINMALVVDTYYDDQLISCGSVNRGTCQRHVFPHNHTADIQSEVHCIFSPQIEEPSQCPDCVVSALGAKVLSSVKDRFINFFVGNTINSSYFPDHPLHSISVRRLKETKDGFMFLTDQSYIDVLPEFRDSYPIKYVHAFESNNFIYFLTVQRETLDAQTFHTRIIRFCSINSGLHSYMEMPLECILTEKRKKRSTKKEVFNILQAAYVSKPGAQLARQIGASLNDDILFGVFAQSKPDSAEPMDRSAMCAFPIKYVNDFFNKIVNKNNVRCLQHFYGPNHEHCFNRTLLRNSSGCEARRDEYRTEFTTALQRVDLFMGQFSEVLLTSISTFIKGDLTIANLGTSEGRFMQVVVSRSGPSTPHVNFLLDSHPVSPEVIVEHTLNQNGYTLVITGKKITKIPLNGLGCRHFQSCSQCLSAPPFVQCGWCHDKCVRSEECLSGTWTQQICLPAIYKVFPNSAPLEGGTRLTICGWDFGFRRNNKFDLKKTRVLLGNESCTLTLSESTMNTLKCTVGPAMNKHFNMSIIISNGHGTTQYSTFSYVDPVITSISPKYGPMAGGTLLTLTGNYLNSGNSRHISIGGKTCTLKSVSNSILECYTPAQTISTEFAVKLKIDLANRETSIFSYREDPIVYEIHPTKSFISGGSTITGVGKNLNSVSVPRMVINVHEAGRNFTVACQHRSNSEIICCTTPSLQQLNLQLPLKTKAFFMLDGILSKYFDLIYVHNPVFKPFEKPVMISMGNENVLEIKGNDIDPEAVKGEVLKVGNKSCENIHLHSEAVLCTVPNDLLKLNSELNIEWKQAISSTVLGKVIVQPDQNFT
T1 sequence (P08581 25-1390 limits assumed): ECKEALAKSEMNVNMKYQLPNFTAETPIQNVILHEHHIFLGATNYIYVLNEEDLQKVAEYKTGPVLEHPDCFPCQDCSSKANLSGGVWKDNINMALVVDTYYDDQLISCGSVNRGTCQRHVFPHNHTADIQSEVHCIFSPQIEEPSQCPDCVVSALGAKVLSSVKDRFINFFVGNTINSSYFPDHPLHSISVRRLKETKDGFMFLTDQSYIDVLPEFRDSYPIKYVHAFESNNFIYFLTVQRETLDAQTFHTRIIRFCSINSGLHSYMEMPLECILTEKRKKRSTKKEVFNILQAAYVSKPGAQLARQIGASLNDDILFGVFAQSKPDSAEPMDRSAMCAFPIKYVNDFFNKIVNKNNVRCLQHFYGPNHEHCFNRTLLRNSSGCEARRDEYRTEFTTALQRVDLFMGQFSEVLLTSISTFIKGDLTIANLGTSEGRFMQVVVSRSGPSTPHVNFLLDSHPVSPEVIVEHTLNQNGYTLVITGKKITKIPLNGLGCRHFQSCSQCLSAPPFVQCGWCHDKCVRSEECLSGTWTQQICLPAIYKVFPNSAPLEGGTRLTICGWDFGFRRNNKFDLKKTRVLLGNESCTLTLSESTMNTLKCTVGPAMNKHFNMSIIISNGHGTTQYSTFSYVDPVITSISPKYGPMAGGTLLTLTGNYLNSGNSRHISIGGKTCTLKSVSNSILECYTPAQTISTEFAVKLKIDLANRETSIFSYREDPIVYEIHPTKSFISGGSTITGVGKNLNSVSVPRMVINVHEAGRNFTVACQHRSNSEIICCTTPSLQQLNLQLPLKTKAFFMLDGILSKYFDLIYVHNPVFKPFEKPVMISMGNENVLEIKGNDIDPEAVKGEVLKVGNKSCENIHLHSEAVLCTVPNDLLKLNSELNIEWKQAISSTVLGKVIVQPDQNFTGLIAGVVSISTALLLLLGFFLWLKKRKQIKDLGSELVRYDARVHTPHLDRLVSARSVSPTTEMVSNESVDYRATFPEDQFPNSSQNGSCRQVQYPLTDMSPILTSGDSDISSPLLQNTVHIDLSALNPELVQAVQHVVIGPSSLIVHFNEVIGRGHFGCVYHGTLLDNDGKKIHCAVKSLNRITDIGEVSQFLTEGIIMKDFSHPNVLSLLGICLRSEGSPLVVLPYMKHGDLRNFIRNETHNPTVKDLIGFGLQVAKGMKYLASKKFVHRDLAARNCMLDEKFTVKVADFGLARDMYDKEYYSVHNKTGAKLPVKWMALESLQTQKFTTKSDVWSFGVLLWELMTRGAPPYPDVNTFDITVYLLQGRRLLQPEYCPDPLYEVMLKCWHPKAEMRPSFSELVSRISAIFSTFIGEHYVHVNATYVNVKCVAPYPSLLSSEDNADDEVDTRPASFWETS
T2 sequence (A0M8R7 25-1381 S170N/I621T limits assumed): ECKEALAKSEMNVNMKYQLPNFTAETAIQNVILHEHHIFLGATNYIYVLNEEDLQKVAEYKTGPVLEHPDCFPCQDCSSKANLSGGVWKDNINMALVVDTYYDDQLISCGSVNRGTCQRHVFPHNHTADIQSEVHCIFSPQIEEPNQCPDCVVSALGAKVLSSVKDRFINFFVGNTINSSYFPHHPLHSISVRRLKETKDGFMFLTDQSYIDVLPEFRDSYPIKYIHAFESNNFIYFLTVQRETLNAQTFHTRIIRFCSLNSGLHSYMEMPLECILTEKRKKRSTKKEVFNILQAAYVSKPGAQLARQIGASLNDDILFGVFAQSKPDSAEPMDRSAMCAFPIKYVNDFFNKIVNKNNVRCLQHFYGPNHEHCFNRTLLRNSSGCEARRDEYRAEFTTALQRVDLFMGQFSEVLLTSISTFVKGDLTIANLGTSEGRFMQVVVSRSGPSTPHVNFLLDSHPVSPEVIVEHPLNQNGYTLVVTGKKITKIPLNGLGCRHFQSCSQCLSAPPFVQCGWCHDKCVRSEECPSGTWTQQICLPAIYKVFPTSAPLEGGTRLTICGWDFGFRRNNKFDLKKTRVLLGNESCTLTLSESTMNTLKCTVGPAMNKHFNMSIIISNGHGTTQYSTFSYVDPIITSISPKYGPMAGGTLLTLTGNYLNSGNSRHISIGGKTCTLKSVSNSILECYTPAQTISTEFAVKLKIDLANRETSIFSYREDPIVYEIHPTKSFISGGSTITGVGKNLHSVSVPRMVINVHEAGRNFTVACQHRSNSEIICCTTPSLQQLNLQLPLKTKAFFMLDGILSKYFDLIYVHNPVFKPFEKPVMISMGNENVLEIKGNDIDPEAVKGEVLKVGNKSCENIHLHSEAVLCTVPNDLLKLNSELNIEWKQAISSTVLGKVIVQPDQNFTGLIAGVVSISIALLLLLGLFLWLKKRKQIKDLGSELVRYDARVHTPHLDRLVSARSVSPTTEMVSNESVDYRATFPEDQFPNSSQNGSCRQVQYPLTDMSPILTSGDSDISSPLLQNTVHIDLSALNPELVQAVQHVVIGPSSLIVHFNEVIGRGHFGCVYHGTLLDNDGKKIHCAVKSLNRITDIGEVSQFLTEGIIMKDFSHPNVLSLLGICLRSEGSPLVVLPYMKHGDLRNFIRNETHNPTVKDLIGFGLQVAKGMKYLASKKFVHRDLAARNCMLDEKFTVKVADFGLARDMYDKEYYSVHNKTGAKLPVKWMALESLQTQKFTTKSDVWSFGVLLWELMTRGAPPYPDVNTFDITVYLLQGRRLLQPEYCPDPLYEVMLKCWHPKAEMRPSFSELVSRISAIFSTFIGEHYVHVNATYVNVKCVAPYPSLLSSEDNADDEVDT
T4 sequence (A0M8R7 25-932 S170N/I621T): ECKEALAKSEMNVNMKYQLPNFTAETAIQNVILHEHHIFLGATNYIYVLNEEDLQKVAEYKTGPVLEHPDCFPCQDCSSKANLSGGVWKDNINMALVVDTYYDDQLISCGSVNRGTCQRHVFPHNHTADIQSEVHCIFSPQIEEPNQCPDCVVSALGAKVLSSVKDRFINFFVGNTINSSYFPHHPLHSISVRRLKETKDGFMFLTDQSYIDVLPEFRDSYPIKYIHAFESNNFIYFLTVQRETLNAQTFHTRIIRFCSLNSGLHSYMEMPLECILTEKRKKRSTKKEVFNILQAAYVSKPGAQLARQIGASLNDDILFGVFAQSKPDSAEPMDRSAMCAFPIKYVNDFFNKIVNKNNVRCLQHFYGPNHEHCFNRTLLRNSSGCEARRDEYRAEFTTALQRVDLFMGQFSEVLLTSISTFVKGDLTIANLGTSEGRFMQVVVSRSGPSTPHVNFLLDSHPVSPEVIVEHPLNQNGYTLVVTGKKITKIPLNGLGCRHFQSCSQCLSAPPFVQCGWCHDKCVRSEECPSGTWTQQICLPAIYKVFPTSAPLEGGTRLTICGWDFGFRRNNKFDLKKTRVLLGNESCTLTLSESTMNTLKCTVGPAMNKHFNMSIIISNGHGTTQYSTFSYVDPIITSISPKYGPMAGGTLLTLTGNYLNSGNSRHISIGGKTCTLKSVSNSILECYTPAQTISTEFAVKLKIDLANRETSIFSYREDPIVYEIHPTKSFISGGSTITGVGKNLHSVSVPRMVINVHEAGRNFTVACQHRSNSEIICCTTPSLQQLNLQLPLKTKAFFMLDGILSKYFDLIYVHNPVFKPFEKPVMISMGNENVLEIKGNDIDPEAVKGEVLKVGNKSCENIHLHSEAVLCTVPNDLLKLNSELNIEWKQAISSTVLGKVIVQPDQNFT

B1: 07C10 (antibody, IgG4, V domains shown)
VH: QVQLVQSGAEVKKPGASVKVSCKASGYIFTAYSMHWVRQAPGQGLEWMGIIKPSNGSTNYAQKFQGRVTMTRDTSTSTVYMELSSLRSEDTAVYYCARAEITTEFDYWGQGTLVTVSS
VL: EIVLTQSPGTLSLSPGERATLSCRASQSVESYAQSYLHWYQQKPGQAPRLLIYRGSTRESGIPDRFSGSGSGTDFTLTISRLEPEDFAVYYCQQSKEEPLTFGGGTKVEIK
Usually Kd stands for the equilibrium constant for the complex coming apart. Broadly, the koff is the first-order rate constant of dissociation. A word on the kon: it is the rate constant with which the complex forms. As usually defined, the EC50 is the concentration that produces a half-maximal response. On to B1, for which the “maximum MFI, fold over Isotype IgG4 background” value (“maximum MFI, fold” for short) in assay [1] and in assay [2] was greater than 10 fold each time. Besides, the dissociation constant Kd came out at 0.78 nM in assay [3] and 3.2 nM in assay [4]. Moreover, the koff in assay [3] is 9.4e-05 s⁻¹; in assay [4], 0.00021 s⁻¹. The kon in assay [3] was determined as 120000 M⁻¹ s⁻¹; in assay [4], 65000 M⁻¹ s⁻¹. The EC50 in assay [5] came out at 9.59 nM; in assay [6], 2.82 nM.

B2: Grafted clone (Graft), IGHV1-46/IGKV3-20 CDR graft of 224G11 (antibody, human IgG4, V domains shown)
VH: QVQLVQSGAEVKKPGASVKVSCKASGYIFTAYTMHWVRQAPGQGLEWMGWIKPNNGLANYAQKFQGRVTMTRDTSTSTVYMELSSLRSEDTAVYYCARSEITTEFDYWGQGTLVTVSS
VL: EIVLTQSPGTLSLSPGERATLSCRASQSVDSYANSFLHWYQQKPGQAPRLLIYRASTRESGIPDRFSGSGSGTDFTLTISRLEPEDFAVYYCQQSKEDPLTFGGGTKVEIK
notes: also called VH graft/VL graft
B2: the “maximum MFI, fold” value in assay [1] and in assay [2] was greater than 10 fold each time. Besides, the Kd in assay [3] worked out at 0.37 nM; in assay [4] it was 0.22 nM. Further, the dissociation rate constant (koff) in assay [3] came out at 3.7e-05 s⁻¹; in assay [4], 5.2e-05 s⁻¹. Moreover, the on-rate constant (kon) in assay [3] came out at 99000 M⁻¹ s⁻¹; in assay [4] it was 230000 M⁻¹ s⁻¹.

B3: MH2 (antibody, IgG4, V domains shown)
VH: QVQLVQSGAEVKKPGASVKVSCKASGYTFTSYTMHWVRQAPGQGLEWMGWINPNGGSTSYAQKFQGRVTMTRDTSTSTVYMELSSLRSEDTAVYYCARQEITTEFDYWGQGTLVTVSS
VL: EIVLTQSPGTLSLSPGERATLSCRASQSVSSYAQSYLHWYQQKPGQAPRLLIYRGSTRETGIPDRFSGSGSGTDFTLTISRLEPEDFAVYYCQQSGSSPLTFGGGTKVEIK
Consider B3, for which the “maximum MFI, fold” value in assay [1] and in assay [2] was greater than 10 fold each time. The Kd was found to be 2.5 nM in assay [3] and 0.87 nM in assay [4]. The off-rate (koff) is 0.00018 s⁻¹ in assay [3] and 0.00021 s⁻¹ in assay [4]. Further, the kon in assay [3] is 73000 M⁻¹ s⁻¹; in assay [4], 240000 M⁻¹ s⁻¹. Further, the 50% effective concentration (EC50) in assay [5] amounted to 1.59 nM; in assay [6], 0.34 nM.

B4: MH6 (antibody, IgG4, V domains shown)
VH: QVQLVQSGAEVKKPGASVKVSCKASGYTFTSYTMHWVRQAPGQGLEWMGWINPSGGSTSYAQKFQGRVTMTRDTSTSTVYMELSSLRSEDTAVYYCARQEITTEFDYWGQGTLVTVSS
VL: EIVLTQSPGTLSLSPGERATLSCRASQSVSSYAQSYLHWYQQKPGQAPRLLIYRGSTRETGIPDRFSGSGSGTDFTLTISRLEPEDFAVYYCQQYGSSPLTFGGGTKVEIK
Turning to B4, the “maximum MFI, fold” value in assay [1] and in assay [2] was greater than 10 fold each time. The values for the Kd in assay [3] and in assay [4] were 8.2 nM and 4 nM, respectively. The koff came out at 0.00053 s⁻¹ in assay [3] and 0.00063 s⁻¹ in assay [4]. The figures for the association rate constant (kon) in assay [3] and in assay [4] were 65000 M⁻¹ s⁻¹ and 160000 M⁻¹ s⁻¹, respectively. For the same molecule, the EC50 in assay [5] was found to be 1.33 nM; in assay [6], 0.72 nM.

B5: MH1 (antibody, IgG4, V domains shown)
VH: QVQLVQSGAEVKKPGASVKVSCKASGYTFTSYTMHWVRQAPGQGLEWMGWINPNGGSTSYAQKFQGRVTMTRDTSTSTVYMELSSLRSEDTAVYYCARQEITTEFDYWGQGTLVTVSS
VL: EIVLTQSPGTLSLSPGERATLSCRASQSVSSYANSYLHWYQQKPGQAPRLLIYRGSTRESGIPDRFSGSGSGTDFTLTISRLEPEDFAVYYCQQSKSEPLTFGGGTKVEIK
Take B5: the “maximum MFI, fold” value in assay [1] and in assay [2] was greater than 10 fold throughout. The Kd was found to be 0.75 nM in assay [3] and 0.14 nM in assay [4]. Also, the values for the koff in assay [3] and in assay [4] were 7.11e-05 s⁻¹ and 2.6e-05 s⁻¹, respectively. In addition, the kon in assay [3] was 94700 M⁻¹ s⁻¹; in assay [4], 180000 M⁻¹ s⁻¹. For the same molecule, the results for the concentration giving a half-maximal response (EC50) in assay [5] and in assay [6] were 2.02 nM and 0.26 nM, respectively.

B6: 09B08 (antibody, IgG4, V domains shown)
VH: QVQLVQSGAEVKKPGASVKVSCKASGYTFTSYTMHWVRQAPGQGLEWMGWINPNNGSTNYAQKFQGRVTMTRDTSTSTVYMELSSLRSEDTAVYYCARSEITTDFDYWGQGTLVTVSS
VL: EIVLTQSPGTLSLSPGERATLSCRASQSVSSYANSYLHWYQQKPGQAPRLLIYRGSTRESGIPDRFSGSGSGTDFTLTISRLEPEDFAVYYCQQSKSDPLTFGGGTKVEIK
For B6, the “maximum MFI, fold” value in assay [1] and in assay [2] was greater than 10 fold throughout. For the same molecule, the Kd in assay [3] was 1.1 nM; in assay [4], 0.2 nM. Also, the koff was found to be 4.1e-05 s⁻¹ in assay [3] and 1.2e-05 s⁻¹ in assay [4]. For the same molecule, the kon in assay [3] was 37000 M⁻¹ s⁻¹; in assay [4], 60000 M⁻¹ s⁻¹. Further, the figures for the EC50 in assay [5] and in assay [6] were 9.3 nM and 3.78 nM, respectively.

B7: MH5 (antibody, IgG4, V domains shown)
VH: QVQLVQSGAEVKKPGASVKVSCKASGYTFTSYTMHWVRQAPGQGLEWMGWINPSGGSTSYAQKFQGRVTMTRDTSTSTVYMELSSLRSEDTAVYYCARQEITTEFDYWGQGTLVTVSS
VL: EIVLTQSPGTLSLSPGERATLSCRASQSVSSYAQSYLHWYQQKPGQAPRLLIYRGSTRETGIPDRFSGSGSGTDFTLTISRLEPEDFAVYYCQQSGSSPLTFGGGTKVEIK
For the molecule B7, the “maximum MFI, fold” value in assay [1] and in assay [2] was greater than 10 fold each time. The figures for the Kd in assay [3] and in assay [4] were 2 nM and 1.3 nM, respectively. In addition, the koff in assay [3] worked out at 0.00015 s⁻¹; in assay [4], 0.00021 s⁻¹. Besides, the values for the kon in assay [3] and in assay [4] were 77000 M⁻¹ s⁻¹ and 170000 M⁻¹ s⁻¹, respectively. The EC50 in assay [5] is 1.76 nM; in assay [6], 0.3 nM.

B8: 08B12 (antibody, IgG4, V domains shown)
VH: QVQLVQSGAEVKKPGASVKVSCKASGYIFTAYSMHWVRQAPGQGLEWMGWIKPNNGSTNYAQKFQGRVTMTRDTSTSTVYMELSSLRSEDTAVYYCARTEITTEFDYWGQGTLVTVSS
VL: EIVLTQSPGTLSLSPGERATLSCRASQSVDSYANSYLHWYQQKPGQAPRLLIYRGSTRETGIPDRFSGSGSGTDFTLTISRLEPEDFAVYYCQQSKSDPLTFGGGTKVEIK
For the molecule B8, the “maximum MFI, fold” value in assay [1] and in assay [2] was greater than 10 fold throughout. Besides, the Kd in assay [3] was determined as 8.4 nM; in assay [4], 8.1 nM. Moreover, the off-rate (koff) in assay [3] is 0.00031 s⁻¹; in assay [4], 0.00043 s⁻¹. Moreover, the kon in assay [3] is 37000 M⁻¹ s⁻¹; in assay [4] it was 54000 M⁻¹ s⁻¹. Besides, the EC50 in assay [5] is 11.7 nM; in assay [6] it was 1.34 nM.

B9: MH3 (antibody, IgG4, V domains shown)
VH: QVQLVQSGAEVKKPGASVKVSCKASGYTFTSYTMHWVRQAPGQGLEWMGWINPNGGSTSYAQKFQGRVTMTRDTSTSTVYMELSSLRSEDTAVYYCARQEITTEFDYWGQGTLVTVSS
VL: EIVLTQSPGTLSLSPGERATLSCRASQSVSSYAQSYLHWYQQKPGQAPRLLIYRGSTRETGIPDRFSGSGSGTDFTLTISRLEPEDFAVYYCQQYGSSPLTFGGGTKVEIK
notes: also called MH03
Regarding B9, the “maximum MFI, fold” value in assay [1] and in assay [2] was greater than 10 fold throughout. The values for the dissociation constant (Kd) in assay [3] and in assay [4] were 7.6 nM and 4.1 nM, respectively. In addition, the koff in assay [3] is 0.00051 s⁻¹; in assay [4], 0.00062 s⁻¹. In addition, the on-rate (kon) in assay [3] turned out to be 68000 M⁻¹ s⁻¹; in assay [4], 150000 M⁻¹ s⁻¹. For the same molecule, the EC50 in assay [5] turned out to be 1.66 nM; in assay [6], 0.27 nM.
